The target of the experiment is 3×HA-xtMc1r (Xenopus tropicalis melanocortin 1 receptor) (Xenopus tropicalis).

For the substance “alpha melanocyte-stimulating hormone (α-MSH) peptide”, the EC50 of α-MSH in the cAMP luciferase reporter assay (pCRE-luc, HEK293T), xtMc1r:xtMrap1 plasmid ratios 1:0 to 1:6; EC50 from 6.906×10^−10 M (1:6) to 2.806 × 10^−9 M (1:0) came to 2.81e-09 M and the EC50 of α-MSH in the cAMP luciferase reporter assay (pCRE-luc, HEK293T), xtMc1r:xtMrap2 plasmid ratios 1:0 to 1:6; EC50 from 7.550 × 10^−10 M (1:3) to 2.036 × 10^−9 M (1:0) turned out to be 2.04e-09 M.
On to ACTH peptide, for which the EC50 of ACTH in the cAMP luciferase reporter assay (pCRE-luc, HEK293T), xtMc1r:xtMrap1 plasmid ratios 1:0 to 1:6; EC50 from 1.171 × 10^−9 M (1:3) to 7.006 × 10^−9 M (1:0) was 7.01e-09 M and the EC50 of ACTH in the cAMP luciferase reporter assay (pCRE-luc, HEK293T), xtMc1r:xtMrap2 plasmid ratios 1:0 to 1:6; EC50 from 1.513 × 10^−9 M (1:6) to 7.150 × 10^−9 M (1:0) worked out at 7.15e-09 M.

For the origin of these results see article PMC9251544.
